Measured values taken from patent publication US20040167074A1, “Therapeutic applications of mFLINT polypeptides” (priority 1998, published 2004).

Assays:
FasL = target: T1, FasL (Homo sapiens, UniProt P48023); assay: Dot blot binding of mFLINT to TNF ligands; details: chemiluminescence detection
T1 construct: made in house
T1 sequence (P48023 1-281): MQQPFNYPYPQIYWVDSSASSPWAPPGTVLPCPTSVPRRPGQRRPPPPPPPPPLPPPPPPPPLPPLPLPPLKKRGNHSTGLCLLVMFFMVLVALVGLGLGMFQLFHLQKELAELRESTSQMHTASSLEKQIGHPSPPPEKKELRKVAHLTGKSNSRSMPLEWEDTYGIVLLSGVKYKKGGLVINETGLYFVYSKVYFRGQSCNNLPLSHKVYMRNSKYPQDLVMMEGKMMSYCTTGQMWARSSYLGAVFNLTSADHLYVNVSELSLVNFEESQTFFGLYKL
Protocol: (§1) Dot blot experiment was performed to scan known TNF ligands that are commercially available TRAIL and FasL for interaction with mFLINT.
(§2) TRAIL (RnD Systems) and FasL (Kamiya Biomedical Company) were spotted on a nitrocellulose paper and incubated with purified mFLINT-Flag. mFLINT was washed away and binding mFLINT was detected using anti Flag antibody. Both OPG2Fc and mFLINT-Flag were overexpressed and purified according the examples above. […] The nitrocellulose paper was subsequently mixed with the cell lysate containing FasL-Myc, and further incubated on a rotator for 1 hour at room temperature. Secondary and tertiary incubations were performed with anti-myc antibody and anti-mouse IgG-HRP for 1 hour and 30 minutes respectively.

TRAIL = target: T2, TRAIL (Homo sapiens, UniProt P50591); assay: Dot blot binding of mFLINT to TNF ligands
T2 construct: purchased RnD Systems
Protocol: as §1, §2

[1] = target: T3, Fas-FasLigand interaction (Homo sapiens, UniProt P48023); assay: ELISA: FLINT prevents Fas-FasLigand interaction; format: binding; details: hFasLigand 30 ng, mrecFas 100 ng adsorbed
T3 sequence (P48023 103-281 limits assumed): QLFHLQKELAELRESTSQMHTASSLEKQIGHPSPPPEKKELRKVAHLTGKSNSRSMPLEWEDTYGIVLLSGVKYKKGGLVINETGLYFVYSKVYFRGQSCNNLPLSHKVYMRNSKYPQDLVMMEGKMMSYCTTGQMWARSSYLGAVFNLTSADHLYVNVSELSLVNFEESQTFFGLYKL
Protocol: As above, mrecFas (100 ng) was adsorbed on to ELISA plate. Again the plate was blocked by TBST and 0.1% Gelatine. […] As before, after washing of the plate, anti-mouse-Abs-HRP (3000 dilution, Bio-Rad) was added to the wells. After washings, visualization enzymatic reaction using ABTS as a substrate was performed.

[2] = tested on: Mouse T cell hybridoma cells (LTT cells); assay: Murine FasL-mediated apoptosis of LTT cells (MTS cytotoxicity assay); format: cell-based; details: test agent 1 μg/ml
Protocol: LTT,2,14,11 cells (LTT cells), see Glasebrook, Eur.J.Immunol. 17: 1561-65 (1987), were used in this Annexin V assay. On the first day, a 96 well plate was coated with anti-CD3 (2C11) at a serial dilutions. On the second day, 100,000 LTT cells were added, in 50 μl of medium per well, along with 50 μl of medium to the control wells and 50 μl of medium containing:
The same steps as in Example 16 were followed on Day 1 and Day 2. On Day 3 20 ul of MTS solution (Promega) was added to the cells which were then incubated at 37° C. for 2 hours. Using a plate reader, the absorbances at 490 nm wavelength were collected.

osteoclasts = assay: Porcine osteoclast differentiation assay (TRAP staining); format: cell-based, pig; details: mean and standard error of 6 wells
From the text: Neonatal pigs (aged 1-5 days) were euthanized with CO2, the appendages were rinsed with 70% ethanol, the soft tissues were removed, and the humeri, radii, ulnae, femora, tibiae and fibulae were excised. The long bones were placed in ice-cold calcium and magnesium-free Hank's balanced salt solution (CMF-HBSS, Gibco BRL) and cleaned of all soft tissues. The bones were split longitudinally and the endosteal surfaces were scraped to remove both the marrow and trabecular bone. The suspension of trabecular bone particles and marrow cells was agitated by vigorous shaking and passed through a […] and then […] sieve. Cells were centrifuged at 500×g for 10 minutes at 4° C., the pellet was resuspended in CMF-HBSS, and then separated on a Ficoll-Paque gradient (Pharmacia, Piscataway, N.J.). The mononuclear cell fraction from the gradient was washed twice in CMF-HBSS and passed through a […] sieve. The cells were suspended in growth medium consisting of a-MEM (pH 7.2, which was modified to contain 8.3 mM NaHCO3 (Gibco BRL, Grand Island, N.Y.)), 10% heat-inactivated fetal bovine serum (FBS, Hyclone, Logan, Utah) and 2% antibiotic/antimycotic solution (Gibco BRL, Grand Island, N.Y.) and seeded onto tissue culture dishes at a density of 1×10^6 cells/cm^2. A typical marrow cell yield was between 1-2×10^9 cells/animal, which varied with the size of the animal. The cells were incubated at 37° C. in a humid incubator with 5% CO2. […] Following 5 days of culture, the cells were fixed with formalin (3.7% for 10 min) and then stained for tartrate-resistant acid phosphatase (TRAP) as in Example 6. The number of osteoclasts (TRAP-positive cells containing 3 or more nuclei) was quantitated.

T2 sequence (P50591 114-281 limits assumed, species assumed): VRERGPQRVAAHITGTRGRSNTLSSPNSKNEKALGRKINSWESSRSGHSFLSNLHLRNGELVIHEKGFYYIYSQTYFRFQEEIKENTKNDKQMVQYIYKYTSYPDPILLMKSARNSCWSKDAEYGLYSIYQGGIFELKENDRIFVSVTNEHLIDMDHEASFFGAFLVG

B1: mFLINT: mature FLINT without leader peptide (FIG. 3), soluble TNFR superfamily member, made according to Examples 8 and 9 (protein)
chain: VAETPTYPWRDAETGERLVCAQCPPGTFVQRPCRRDSPTTCGPCPPRHYTQFWNYLERCRYCNVLCGEREEEARACHATHNRACRCRTGFFAHAGFCLEHASCPPGAGVIAPGTPSQNTQCQPCPPGTFSASSSSSEQCQPHRNCTALGLALNVPGSSSHDTLCTSCTGFPLSTRVPGAEECERAVIDFVAFQDISIKRLQRLLQALEAPEGWGPTPRAGRAALQLKLRRRLTELLGAQDGALLVRLLQALRVARMPGLERSVRERFLPVH
modifications: glycosylated
For B1, the “binding in dot blot” value (FasL) was “bound to FasL specifically”, the “binding in dot blot” value (TRAIL) was “No appreciable binding” and the “OD, 405 nM” value ([1]; FLINT 1 ng) was 0.36. The “OD, 405 nM” value ([1]; FLINT 5 ng) was 0.36, the “OD, 405 nM” value ([1]; FLINT 10 ng) was 0.36 and the “OD, 405 nM” value ([1]; FLINT 50 ng) was 0.28. The “OD, 405 nM” value ([1]; FLINT 100 ng) was 0.18, the “OD, 405 nM” value ([1]; FLINT 500 ng) was 0.06 and the “MTS absorbance at 490 nm” value ([2]; Anti CD3 conc. 0 μg/ml) was 1.691. For the same molecule, the “MTS absorbance at 490 nm” value ([2]; Anti CD3 conc. 0.0014 μg/ml) was 1.923, the “MTS absorbance at 490 nm” value ([2]; Anti CD3 conc. 0.004 μg/ml) was 1.982 and the “MTS absorbance at 490 nm” value ([2]; Anti CD3 conc. 0.012 μg/ml) was 2.006. For the same molecule, the “MTS absorbance at 490 nm” value ([2]; Anti CD3 conc. 0.037 μg/ml) was 2.006, the “MTS absorbance at 490 nm” value ([2]; Anti CD3 conc. 0.11 μg/ml) was 1.874 and the “MTS absorbance at 490 nm” value ([2]; Anti CD3 conc. 0.33 μg/ml) was 1.671. The “MTS absorbance at 490 nm” value ([2]; Anti CD3 conc. 1 μg/ml) was 1.581, the Osteoclasts/well (osteoclasts; FLINT 0.01 ng/ml, control 214.83) was 68.83 ± 6.28 Osteoclasts/well and the Osteoclasts/well (osteoclasts; FLINT 0.10 ng/ml) was 176.17 ± 23.01 Osteoclasts/well. It also gave an Osteoclasts/well (osteoclasts; FLINT 1.00 ng/ml) of 228.50 ± 17.26 Osteoclasts/well, an Osteoclasts/well (osteoclasts; FLINT 10.00 ng/ml) of 228.50 ± 29.29 Osteoclasts/well and an Osteoclasts/well (osteoclasts; FLINT 100.00 ng/ml) of 382.33 ± 26.59 Osteoclasts/well.
